Source: doi:10.1101/2023.06.17.545066 (bioRxiv, 2023)

Target: the molecule itself
Assay: SEC

B1: EcL-TTD αβ heterodimer (complex)
chain 1: MMSESNKQQAVNKLTEIVANFTAMISTRMPDDVVDKLKQLKDAETSSMGKIIYHTMFDNMQKAIDLNRPACQDTGEIMFFVKVGSRFPLLGELQSILKQAVEEATVKAPLRHNAVEIFDEVNTGKNTGSGVPWVTWDIIPDNDDAEIEVYMAGGGCTLPGRSKVLMPSEGYEGVVKFVFENISTLAVNACPPVLVGVGIATSVETAAVLSRKAILRPIGSRHPNPKAAELELRLEEGLNRLGIGPQGLTGNSSVMGVHIESAARHPSTIGVAVSTGCWAHRRGTLLVHADLTFENLSHTRSAL
chain 2: MKKILTTPIKAEDLQDIRVGDVIYLTGTLVTCRDVCHRRLIELKRPIPYDLNGKAIFHAGPIVRKNGDKWEMVSVGPTTSMRMESFEREFIEQTGVKLVVGKGGMGPLTEEGCQKFKALHVIFPAGCAVLAATQVEEIEEVHWTELGMPESLWVCRVKEFGPLIVSIDTHGNNLIAENKKLFAERRDPIVEEICEHVHYIK
stoichiometry N: 2
